Measured values as given in paper PMC8649762, “A Hyperthermoactive-Cas9 Editing Tool Reveals the Role of a Unique Arsenite Methyltransferase in the Arsenic Resistance System of Thermus thermophilus HB27” (mBio, 2021).
Like-named read-outs stand apart in the source and are kept apart here.

Tests used:
TtArsM (TTC0109) = biological target: T1, TtArsM (TTC0109) (Thermus thermophilus, UniProt Q72LF0); assay: coupled colorimetric SAH-release methyltransferase assay, […] nm; products by GC-MS; format: biochemical; details: methyl donor; same
T1 construct: gene TT_C0109; full-length, C-terminal His tag (pET30b NdeI/HindIII), E. coli BL21-CodonPlus(DE3)-RIL
T1 sequence (Q72LF0 1-249): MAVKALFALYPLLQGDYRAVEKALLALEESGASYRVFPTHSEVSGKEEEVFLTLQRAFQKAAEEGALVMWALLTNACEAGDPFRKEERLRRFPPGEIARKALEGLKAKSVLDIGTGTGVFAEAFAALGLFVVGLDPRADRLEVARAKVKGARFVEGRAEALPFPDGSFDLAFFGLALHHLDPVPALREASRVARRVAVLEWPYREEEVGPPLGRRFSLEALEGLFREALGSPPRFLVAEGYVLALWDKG

TtSmtB-TtArsM complex = biological target: T2, TtSmtB-TtArsM complex (Thermus thermophilus, UniProt Q72KG0); format: binding; details: 1:100 protein/arsenic ratio, arsenite preincubated with TtSmtB 10 min at 60 °C, co-IP buffer pH 7.5, weakens the protein-protein complex
T2 construct: gene smtB; recombinant TtSmtB (E. coli, C-terminal His tag removed) plus C-terminally His-tagged TtArsM; with Arsenite methyltransferase (ArsR family transcriptional regulator / SAM-dependent methyltransferase domain protein)

[1] = biological target: T3, TtArsM (Thermus thermophilus HB27) (UniProt Q72LF0); assay: EMSA; details: EMSA: 20 ng parsM, 1 ug poly(dI-dC), SYBR Gold stain; buffer, salt, pH and temperature as in previous work (refs 23, 62), not given
T3 sequence: T1 sequence (Q72LF0 1-249)

[2] = biological target: the molecule itself; assay: SEC; 500 μg purified TtArsM on analytical Superdex PC75, 50 mM Tris-HCl pH 7.5, 0.2 M KCl; calibrated with gel filtration markers
[3] = biological target: T4, Recombinant TtSmtB with the His tag removed (Thermus thermophilus HB27, UniProt Q72KG0 1-123); assay: co-IP; 5 μg TtSmtB (His tag removed) and 5 μg His-tagged TtArsM in co-IP buffer (50 mM Tris-HCl pH 7.5, 150 mM NaCl, 10% glycerol, 0.1% Triton X-100), 4°C, 2 h; immunoprecipitated with anti-TtSmtB antibodies and protein A-Sepharose, blot with anti-His; with or without arsenite, arsenate, cadmium or antimony at 1:0, 1:25, 1:50, 1:100 molar ratios preincubated with TtSmtB; details: both partners purified
T4 construct: TtSmtB, ArsR/SmtB family transcriptional repressor of Thermus thermophilus HB27; source: E. coli BL21-CodonPlus (DE3)-RIL, pET28/TtsmtB, purified; His tag removed; not shown: His tag, C-terminal, cleaved
T4 sequence (looked up): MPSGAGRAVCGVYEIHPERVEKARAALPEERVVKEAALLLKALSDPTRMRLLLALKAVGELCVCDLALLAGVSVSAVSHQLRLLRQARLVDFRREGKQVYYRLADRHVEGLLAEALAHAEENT

## C[S+](CC[C@H](N)C(=O)O)C[C@H]1O[C@@H](n2cnc3c(N)ncnc32)[C@H](O)[C@@H]1O (some centres unmarked) [SAM]
TtArsM (TTC0109)
  coupled colorimetric SAH-release methyltransferase assay, 510 nm; products by GC: formation of S-adenosylhomocysteine (SAH) from SAM after transfer of methyl group(s) on the substrate

## O=[As](O)(O)O [arsenate]
TtSmtB-TtArsM complex; with arsenate
  fold decrease in complex band intensity: up to 3

## O[As](O)O [arsenite]
TtSmtB-TtArsM complex
  fold decrease in complex band intensity: up to 3

## GGAAGGGGAAGCGGTGTTTCTCGCCCCCGAGGCCAATCCCCCCTACGAGGAGGCGGACCAGGCGGGAAGGCGCGCGGGGAACCGCCCCGCCCTATACTTGGGGAGATG (double strand) [parsM]
[1]
  binding: no binding

B1: Recombinant C-terminal His-tagged TtArsM (TTC0109) (enzyme, Thermus thermophilus HB27, UniProt Q72LF0 1-249, looked up)
chain: T1 sequence (Q72LF0 1-249)
notes: TtArsM (TTC0109) of Thermus thermophilus HB27; TtarsM gene PCR amplified from the genome and cloned NdeI/HindIII into pET30b(+); predicted mass 29.1 kDa; source: E. coli BL21-CodonPlus (DE3)-RIL, pET30b(+)/TtarsM, purified (HisTrap); not shown: His tag, C-terminal, kept
[2]
  stoichiometry N: 2
[3]
  fold decrease of the co-IP band with arsenate (1:100 protein/arsenic ratio) against the complex without metal: ≤ 3 fold
  fold decrease of the co-IP band with arsenite (1:100 protein/arsenic ratio) against the complex without metal: ≤ 3 fold
  fold increase of the co-IP band with cadmium against the complex without metal: ≤ 2 fold
